Test results from CN106008708A.

Molecular target: 重组HBx蛋白 (B基因型HBx, GenBank NO.AF100309.1, 大肠杆菌表达) (乙型肝炎病毒(HBV) B基因型)
Assay: ELISA, serial dilution of purified antibody on plates coated with immunogen HBx; positive threshold 0.3

B1: HBx单克隆抗体KY01 (antibody, mouse IgG1, V domains shown)
VH: EVQLQQSGPELVRPGASVKMSCKASGYTFTSYWMHWLKQRPGQGLEWIGMIDPSNSETRLNQKFKDKATLNVDKSSNTAYMQLSSLTSEDSAVYYCAYDGAYWGQGTLVTVSE
VL: DIVLTQSPASLAVSLGQRATISCRASESVDSYGNSFIHWYQQKPGQPPKLLIYRASNLESGIPARFSGSGSRTDFTLTINPVEADDVATYFCQQSNEDPRTFGGGTKLEIKR
- 抗体滴度(效价) (dilution factor (1:n)): 2.5e+06
